The record followed here is article doi:10.1101/2022.02.02.478874 (bioRxiv, 2022).

The labels stand for the following.
B1: GST-tagged LIC2 (Dynein light intermediate chain 2) (natural protein)
chain: MAPVGVEKKLLLGPNGPAVAAAGDLTSEEEEGQSLWSSILSEVSTRARSKLPSGKNILVFGEDGSGKTTLMTKLQGAEHGKKGRGLEYLYLSVHDEDRDDHTRCNVWILDGDLYHKGLLKFAVSAESLPETLVIFVADMSRPWTVMESLQKWASVLREHIDKMKIPPEKMRELERKFVKDFQDYMEPEEGCQGSPQRRGPLTSGSDEENVALPLGDNVLTHNLGIPVLVVCTKCDAVSVLEKEHDYRDEHLDFIQSHLRRFCLQYGAALIYTSVKEEKNLDLLYKYIVHKTYGFHFTTPALVVEKDAVFIPAGWDNEKKIAILHENFTTVKPEDAYEDFIVKPPVRKLVHDKELAAEDEQVFLMKQQSLLAKQPATPTRASESPARGPSGSPRTQGRGGPASVPSSSPGTSVKKPDPNIKNNAASEGVLASFFNSLLSKKTGSPGSPGAGGVQSTAKKSGQKTVLSNVQEELDRMTRKPDSMVTNSSTENEA
B2: ^mChSpindly^CC2* (R295E-K297E) (natural protein)
chain: MEADIITNLRCRLKEAEEERLKAAQYGLQLVESQNELQNQLDKCRNEMMTMTESYEQEKYTLQREVELKSRMLESLSCECEAIKQQQKMHLEKLEEQLSRSHGQEVNELKTKIEKLKVELDEARLSEKQLKHQVDHQKELLSCKSEELRVMSERVQESMSSEMLALQIELTEMESMKTTLKEEVNELQYRQEQLELLITNLMRQVDRLKEEKEEREKEAVSYYNALEKARVANQDLQVQLDQALQQALDPNSKGNSLFAEVEDRRAAMERQLISMKVKYQSLKKQNVFNREQMQEMELQIATLLQMKGSQTEFEQQERLLAMLEQKNGEIKHLLGEIRNLEKFKNLYDSMESKPSVDSGTLEDNTYYTDLLQMKLDNLNKEIESTKGELSIQRMKALFESQRALDIERKLFANERCLQLSESENMKLRAKLDELKLKYEPEETVEVPVLKKRREVLPVDITTAKDACVNNSALGGEVYRLPPQKEETQSCPNSLEDNNLQLEKSVSIYTPVVSLSPHKNLPVDMQLKKEKKCVKLIGVPADAEALSERSGNTPNSPRLAAESKLQTEVKEGKETSSKLEKETCKKLHPILYVSSKSTPETQCPQQ

One data set addresses T1, ^mChSpindly^ΔRV (human, UniProt Q96EA4 1-605, ΔRV (residues R154-V155)).
T1 sequence: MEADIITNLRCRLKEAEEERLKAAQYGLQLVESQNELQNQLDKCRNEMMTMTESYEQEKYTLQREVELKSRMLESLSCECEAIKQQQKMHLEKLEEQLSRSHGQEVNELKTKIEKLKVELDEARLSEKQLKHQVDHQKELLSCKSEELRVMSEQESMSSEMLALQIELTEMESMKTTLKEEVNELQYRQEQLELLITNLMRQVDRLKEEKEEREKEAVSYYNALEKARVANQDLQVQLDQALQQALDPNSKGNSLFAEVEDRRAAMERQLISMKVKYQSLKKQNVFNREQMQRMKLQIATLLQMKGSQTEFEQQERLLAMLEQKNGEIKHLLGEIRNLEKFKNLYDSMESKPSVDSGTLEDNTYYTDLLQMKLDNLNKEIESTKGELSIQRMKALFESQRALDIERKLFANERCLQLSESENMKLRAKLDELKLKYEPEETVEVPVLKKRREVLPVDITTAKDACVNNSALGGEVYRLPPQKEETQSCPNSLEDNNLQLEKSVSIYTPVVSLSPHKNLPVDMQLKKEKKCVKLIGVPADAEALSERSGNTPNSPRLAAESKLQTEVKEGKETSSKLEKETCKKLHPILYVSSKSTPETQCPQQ
Nature of the data set: pull-down.

Data set [1] addresses B2. Nature of the data set: pull-down.
Data set [2] deals with ROD-Zwilch-ZW10 (RZZ) complex with mCherry on ROD (UniProt P50748;Q9H900;O43264). Nature of the data set: SEC.
The data set “mass photometry” concerns the molecule itself. In words: mass photometry.

Chain of ROD-Zwilch-ZW10 (RZZ) complex with mCherry on ROD (P50748 whole entry, chain 1 of 3): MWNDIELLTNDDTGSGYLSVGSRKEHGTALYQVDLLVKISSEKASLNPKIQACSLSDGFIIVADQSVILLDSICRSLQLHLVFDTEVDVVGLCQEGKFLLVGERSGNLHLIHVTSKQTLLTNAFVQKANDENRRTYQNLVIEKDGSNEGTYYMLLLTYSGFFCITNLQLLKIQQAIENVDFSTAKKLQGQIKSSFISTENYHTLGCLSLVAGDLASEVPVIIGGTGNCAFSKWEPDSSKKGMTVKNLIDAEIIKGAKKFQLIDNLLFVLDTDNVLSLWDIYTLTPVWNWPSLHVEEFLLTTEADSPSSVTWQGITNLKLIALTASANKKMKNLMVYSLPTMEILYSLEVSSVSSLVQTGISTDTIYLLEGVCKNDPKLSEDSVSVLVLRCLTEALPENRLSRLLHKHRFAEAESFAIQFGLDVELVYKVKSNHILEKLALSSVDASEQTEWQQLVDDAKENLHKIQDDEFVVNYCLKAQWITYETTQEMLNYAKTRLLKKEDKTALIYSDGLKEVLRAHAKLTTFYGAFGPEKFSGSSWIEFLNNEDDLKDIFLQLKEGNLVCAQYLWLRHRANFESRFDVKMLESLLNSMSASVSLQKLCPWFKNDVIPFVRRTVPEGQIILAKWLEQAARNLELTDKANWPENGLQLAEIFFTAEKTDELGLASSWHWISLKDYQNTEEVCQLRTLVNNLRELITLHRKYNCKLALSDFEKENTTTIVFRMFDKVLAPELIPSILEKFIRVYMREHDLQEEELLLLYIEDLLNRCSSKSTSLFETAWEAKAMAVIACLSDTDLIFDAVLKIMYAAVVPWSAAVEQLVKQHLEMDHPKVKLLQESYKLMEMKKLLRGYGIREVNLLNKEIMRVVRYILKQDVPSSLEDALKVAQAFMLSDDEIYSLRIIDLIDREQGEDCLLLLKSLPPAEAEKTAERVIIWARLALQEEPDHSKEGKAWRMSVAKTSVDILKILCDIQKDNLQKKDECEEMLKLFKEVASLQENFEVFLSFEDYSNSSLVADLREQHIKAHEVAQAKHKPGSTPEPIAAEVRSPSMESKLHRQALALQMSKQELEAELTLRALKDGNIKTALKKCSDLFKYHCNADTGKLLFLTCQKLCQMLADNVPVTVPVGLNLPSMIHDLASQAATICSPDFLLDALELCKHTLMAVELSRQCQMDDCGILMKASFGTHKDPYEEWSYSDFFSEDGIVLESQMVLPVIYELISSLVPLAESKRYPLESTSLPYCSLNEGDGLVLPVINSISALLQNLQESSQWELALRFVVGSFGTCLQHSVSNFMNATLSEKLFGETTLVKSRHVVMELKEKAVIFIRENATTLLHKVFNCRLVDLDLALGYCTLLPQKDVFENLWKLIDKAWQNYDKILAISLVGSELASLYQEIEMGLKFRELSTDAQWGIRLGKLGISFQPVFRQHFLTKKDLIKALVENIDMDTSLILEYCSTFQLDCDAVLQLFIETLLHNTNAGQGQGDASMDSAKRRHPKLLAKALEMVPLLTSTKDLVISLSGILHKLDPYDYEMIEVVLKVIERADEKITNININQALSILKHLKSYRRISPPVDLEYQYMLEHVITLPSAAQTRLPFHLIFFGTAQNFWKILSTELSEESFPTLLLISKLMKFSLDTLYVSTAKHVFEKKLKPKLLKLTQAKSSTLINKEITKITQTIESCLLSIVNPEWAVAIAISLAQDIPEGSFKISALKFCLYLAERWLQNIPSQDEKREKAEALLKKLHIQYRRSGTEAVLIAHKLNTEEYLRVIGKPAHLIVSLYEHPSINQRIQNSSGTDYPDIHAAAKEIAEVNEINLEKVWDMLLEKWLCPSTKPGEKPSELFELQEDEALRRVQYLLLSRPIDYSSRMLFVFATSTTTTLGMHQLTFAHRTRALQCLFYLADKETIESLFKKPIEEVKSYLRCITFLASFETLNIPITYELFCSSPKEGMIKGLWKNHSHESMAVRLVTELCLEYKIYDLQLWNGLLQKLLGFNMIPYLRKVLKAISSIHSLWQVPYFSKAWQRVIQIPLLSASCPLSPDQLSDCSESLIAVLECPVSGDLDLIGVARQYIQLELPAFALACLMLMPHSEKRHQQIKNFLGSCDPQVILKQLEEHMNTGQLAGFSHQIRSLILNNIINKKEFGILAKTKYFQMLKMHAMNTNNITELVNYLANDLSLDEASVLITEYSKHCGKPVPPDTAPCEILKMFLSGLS
Chain of ROD-Zwilch-ZW10 (RZZ) complex with mCherry on ROD (Q9H900 whole entry, chain 2 of 3): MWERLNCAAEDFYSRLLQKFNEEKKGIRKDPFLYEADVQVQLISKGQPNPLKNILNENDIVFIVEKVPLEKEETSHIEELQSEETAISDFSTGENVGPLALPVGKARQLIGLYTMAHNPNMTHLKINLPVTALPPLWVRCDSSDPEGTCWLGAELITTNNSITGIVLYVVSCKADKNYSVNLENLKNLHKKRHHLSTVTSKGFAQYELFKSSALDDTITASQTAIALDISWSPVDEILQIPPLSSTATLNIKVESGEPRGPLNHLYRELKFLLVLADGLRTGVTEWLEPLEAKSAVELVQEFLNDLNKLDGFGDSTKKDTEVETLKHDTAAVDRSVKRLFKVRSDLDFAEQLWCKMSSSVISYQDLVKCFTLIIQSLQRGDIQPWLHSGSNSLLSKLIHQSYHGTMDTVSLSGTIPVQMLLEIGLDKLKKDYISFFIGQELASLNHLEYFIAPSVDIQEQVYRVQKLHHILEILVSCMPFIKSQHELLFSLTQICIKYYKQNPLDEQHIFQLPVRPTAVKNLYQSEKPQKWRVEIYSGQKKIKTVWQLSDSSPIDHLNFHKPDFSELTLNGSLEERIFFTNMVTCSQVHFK
Chain of ROD-Zwilch-ZW10 (RZZ) complex with mCherry on ROD (O43264 whole entry, chain 3 of 3): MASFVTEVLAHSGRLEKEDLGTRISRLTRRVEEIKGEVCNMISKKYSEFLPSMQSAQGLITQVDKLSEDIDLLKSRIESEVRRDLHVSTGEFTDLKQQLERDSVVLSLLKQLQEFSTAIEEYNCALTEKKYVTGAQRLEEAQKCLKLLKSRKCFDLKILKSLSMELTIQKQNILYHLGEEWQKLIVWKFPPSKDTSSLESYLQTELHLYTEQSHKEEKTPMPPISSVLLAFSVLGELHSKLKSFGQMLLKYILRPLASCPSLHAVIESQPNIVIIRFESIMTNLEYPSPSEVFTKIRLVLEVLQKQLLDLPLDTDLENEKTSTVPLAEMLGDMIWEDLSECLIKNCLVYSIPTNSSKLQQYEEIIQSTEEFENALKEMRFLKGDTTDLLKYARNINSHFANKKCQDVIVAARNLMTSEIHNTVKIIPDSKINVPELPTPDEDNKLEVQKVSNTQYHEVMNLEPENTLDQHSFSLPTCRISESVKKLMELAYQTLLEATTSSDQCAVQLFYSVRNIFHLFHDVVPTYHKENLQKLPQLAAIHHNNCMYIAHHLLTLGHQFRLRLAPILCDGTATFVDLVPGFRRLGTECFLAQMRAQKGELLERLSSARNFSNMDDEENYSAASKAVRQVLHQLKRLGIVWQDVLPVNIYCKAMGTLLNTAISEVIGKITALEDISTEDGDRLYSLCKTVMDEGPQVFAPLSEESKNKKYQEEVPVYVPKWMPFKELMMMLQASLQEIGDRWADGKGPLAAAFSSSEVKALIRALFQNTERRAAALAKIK

Take B1: the binding result (in the data set with ^mChSpindly^ΔRV; in data set [1]) was “binds” each time.

What is called stoichiometry N is the number of molecules, sites or subunits per partner or assembly. Regarding B2, the binding result in data set [2] is reported as “binds”. In the data set “mass photometry”, the “stoichiometry N” value was determined as 2.
